The nature of the data set: label from the status in PepcDB records.
“SEEEEYEQIPQENPPEELSQDPVLELSGGLREKEQKTPRRLRLILMGKTGSGKSATGNSILGRDVFESKLSTRPVTKTSQRRSREWAGKELEVIDTPNILSPQVSPEVADAICQAIVLSAPGPHAVLLVTQLGRFTDEDQQVVRRLQEVFGVGVLGHTILVFTRKEDLAGGSLEDYVRETNNQALAWLDVTLARRHCGFNNRAQGEEQEAQLRELMEKVEAIMWENEGDYYSNKAYQYTQQNFRLKELQERQVSQGQGSEDVPGEESWLEGLSQIQKESEEAHRCLLGKADL”: the protein production entry is given as “not failed”.

As to “SELSQLLNEIRANYEKILTRNQIETVLSTRIQLEEDISKKMDKDEEALKAAQAELKEARRQWHHLQVEIESLHAVERGLENSLHASEQHYQMQLQDLETVIEGLEKELQEVRRGIEKQLQEHEMLLNTKMRLEQEIATYRHLLEKEEIRYYGCIQGGKKDKKPTTSRVGFVLPSAIINEISFTTKVPQKYENENVETVTKQAILNGSIVKESTEAHGTIQTEKVDEVIKEWEGSFFKDNPRLRKKSVSLRFDLHLAATDEGCLETKQDNLPDIEVRLIMRRSCSIPSIKPPSTAN”, the protein production entry is “not failed”. As for “SESQSEEIDCNDKDLFKAVDAALKKYNSQNQSNNQFVLYRITEATKTVGSDTFYSFKYEIKEGDCPVQSGKTWQDCEYKDAAKAATGECTATVGKRSSTKFSVATQTCQITPAEGPVVTAQYDCLGCVHPISTQSPDLEPILRHG”, the protein production entry was “not failed”. With “SFGVKDAIFKIKRSIAGTDSSDSTAYTTASESSPQLKDSHNPFRNKTTSERTIVEEGSLPPVRLNGYLPSTKNKLLTPEMCDEIRTLMPTRIQLYTEWNLLYSLEQHGSSLHSLYSNVAPDSKEFRRVGYVLVIKDRKNGIFGAYSNEAFHPNEHRQYTGNGECFLWKLDKVPDVNISEKEESEQEGKEGKEEGDKEERWRFSGYPYTGVNEFAIYCTSEFLSMGAGDGHYGLLCDDGLLHGVSNPCQTYGNEVLSKEGKKFSIVALEVWRVG” the entry was “not failed”. As for “SFPNRRIVTTVFNDEGIQFLVTRYIKALNPPQQLLDIFLHNSNATFDLIARFVSLIPFVPNTPDENDGSDIWMTSEHCISLAIGNKEEHAILLCNFFLYFGKKALVLLGTSVLEGHVAYVVTQETNEYLLWNPSTGQCYKQFDPFCPLKSVDCLFDDRNVWFNIQQNNTPMAVFFDYSKESFWKQLLPKNVQGTKIQSIQVTGFPIQMPYIDVQSIIDAVYQTGIHSAEFPQTEFALAVYIHPYPNNILSVWVYLASLVQHQ”, the protein production entry is recorded as “not failed”. For “SGESIPLAAPVPVEQAVLETFFSHLGIFSYDKAKDNVEKEREANKSAGGSWLSLLAALAHLAAAEKVYHSLTYLGQKLGGQSFFSRKDSIRTIYTSLHNELKKVVAGRGAPGGTAPHVEELLPHLSEQLCFFVQARMEIADFYEKMYALSTQKFINTEELVSTLDTILRKYSSRFHHPILSPLESSFQLEVGVLSHLLKAQAQISEWKFLPSLVTLHNAHTKLQSWGQTFEKQRETKKHLFGGQSQKAVQPPHLFLWLMKLKTMLLAKFSFYFHEALSRQTTASEMKALTAKANPDLFGKISSFIRKYDAANVSLIFDNRGSESFQGHGYHHPHSYREAPKGVDQYPAVVSLPSDRPVMHWPNVIMIMTDRASDLNSLEKVVHFYDDKVQSTYFLTRPEPHFTIVVIFESKKSERDSHFISFLNELSLALKNPKVFASLKPGSKG” the value was “not failed”; for “SGMLERLPLCGKAFADMMGKVDVWKWCNLSEFIVYYESFTNCTEMEANVVGCYWPNPLAQGFITGIHRQFFSNCTVDRVHLEDPPDEVLIPLIVIPVVLTVAMAGLVVWRSKRTDTLL”, “failed”.

For the sequence “SGQAYIGTYPNGDKIFVKINTTPILAALAKEQIAPQLLWAKRLGNGDMMSAQEWLDGRLLTRADMNSKQIIQVLLQMHKSKPLVNQLLQLNYKVETPLDLLLSWERSAPYQISENAYLQSVVAEMKRNLPDFKKDYATIVHGDVRHSNWVITTSGLVYLVDWDSVRVTDRMYDVAHILSHYIPHTRWAEWLSYYGYKQNTKVFQKIKWYGQLSYLSQILKYYENR”, the protein production result was “failed”. In the case of “SHLVVESFPSYRDVTLFEGKRVSFYKRAQILVADTWSVLEGKGDGCFKDISSITMFADYRLPQVLAHLGALKYSDDLLKKLLKGEMLSYGDRQEVEIRGCSLWCVELIRDCLLELIEQKGEKPNGEINSILLDYYLWDYAHDHREDMKGIPFHRIRCIYY”, the protein production entry is listed as “failed”.

As to “SIDAICAYFYAGYDVPRVLNEGGWFFLENILLIKSVGGRKPPLTDNKLRIKFLQTTKMTHVPNREPSSLFRFAAFSMIENKTINSSTVHDAYGIVVRVGNITRPDFVPQASENTILSQFLEFEIKNSWGKSLICVASGYTCELFVQLWRELGLELGYHWNFGMNPTICVLRFWNVDDHEGRQCLISHNGASKITFNQSYPEINMDRVRTQFLQRMQTPELGEVVDEN”, the protein production result is reported as “not failed”. For “SIQGKVALIAGGAKNLGGLIARDLAAHGARAIAIHYNSPASKADADATVAALQAAGAQAVALQGDLTTAAAVEKLYADALAAVGRPDIAINTVGKVLKKPFSEISEAEYDEMAAVNAKSAFFFLKEAGRHVNDHGKIVTLVTSLLGAFTPFYSAYAGTKAPVEHYTRAAAKEFGARGISVTAVGPGPMDTPFFYGQESPEAVAYHQSAAALSPHSPTGLTHIEDVVPFIRHLVSDGWWITGQTLLINGGY”, the protein production result is reported as “failed”. Turning to “SIQKDLANIAEVEVSIPAKLHNSLIGTKGRLIRSIMEECGGVHIHFPVEGSGSDTVVIRGPSSDVEKAKKQLLHLAEEKQTK”, the protein production result was “not failed”. With “SISNRDTNGMPFAKETLEQQQAVEKKNEILEMSYEIAKLLETGLDRETLQVAIELLEQGFDPYALASVIKELKRGNNQTTE”, the protein production entry was “failed”. For “SKETIMNQKLTKRQAEVHTGRKGTAHRKKVVHTTAEDKKFQFSLKKLGVNNIPGIEEVNMFTHQGTVIHFNNPEVQASLAANTFTMTGHAETKQLTEMLLSIDHKPVLQMV”, the protein production result is listed as “not failed”. “SKNEKEQLSKAKASVSSLNKVIQTKLTVGNLGLGLVVIQNGPYLQISHLINKGAAASDGILQPGDVLISVGHANVLGYTLREFLKLLQNITIGTVLQIKAYRGFLEIPQEWQD”: the protein production entry was “not failed”. With “SLEEVVNELTEEIRELYTADQVPWVIGYSGGKDSTAVLQLVWMALKGLPAEQRTKAVHVISTDTLVENPVVAAWVSASLGTMQDAAQAQGLPVEPHRLTPEIKDTFWVNLLGRGYPAPRPKFRWCTERLKIKPSNAFIRSVVAAHGEAIMVLGIRKTESQARARAMEKHEKRRVRDRLSPNANLPNSLVYSPVEDWTNDDVWEFLMQKPNPWGYTNQDLLTMYQGASSDGECPLVVDSTTPSCGSSRFGCWT” the entry was “failed”.

Consider “SLETVQLRNPPRRQLKKLDEDSLTKQPEEVFDVLEKLGEGSYGSVYKAIHKETGQIVAIKQVPVESDLQEIIKEISIMQQCDSPHVVKYYGSYFKNTDLWIVMEYCGAGSVSDIIRLRNKTLTEDEIATILQSTLKGLEYLHFMRKIHRDIKAGNILLNTEGHAKLADFGVAGQLTDTMAKRNTVIGTPFWMAPEVIQEIGYNCVADIWSLGITAIEMAEGKPPYADIHPMRAIFMIPTNPPPTFRKPELWSDNFTDFVKQCLVKSPEQRATATQLLQHPFVRSAKGVSILRDLINEAMDVKLKRQESQQREEG”, for which the protein production result was “not failed”. For “SLKGKIEWVRVSAVVHSTEDREKVGEAISTLFPFEFEIAVSKAKGHYGNPMEYLEVELTKSSEIKKFWKNLLELLGEQAEEILSTLEDRIDEQNVLHIRIDKQKAYLGEVSLTSGGDPIAVKLRLVTYPSKREKVIEFARELCTIS” the value was “not failed”. For the sequence “SLNDLPGAGRMDVLCRCTSQALFISHGIRRDVEVYLLLLGPPSPPKSILIKGDEVRRMSPDERNVAGHIKKALAVECGKSWKKVHSGVYVSRKGLEELIEELSEKYSIIYLKEDGVDISNAQLPPNPLFVIGDHEGLTEEQEKVVERYAALKLSLSPLSLLAEQCVVIAHHHLDRLQF”, the protein production result was “not failed”. As for “SLQTSDVVIHRKENEGFGFVIISSLNRPESGSTITVPHKIGRIIDGSPADRCAKLKVGDRILAVNGQSIINMPHADIVKLIKDAGLSVTLRIIPQEELNSP”, the protein production result is on record as “not failed”. Turning to “SLRTKSWTDDLKVCNQTGVGEAINQIYKDDGRRCEGYESRDKKCLCISDNNTSLYAILSGHNGVTVAENALQEMAAELLLGQLNVCNTDEAVKELIRQSFMSVEKGYFDSINPHVATKTAIQLHLSADGMNQYEISQQFENVLQKLDSLNNALSVGSSAVLALIHRSHLYLGNIGNCRALLCKTDEHDTLTVTQLSVDHNLLNAEEAARLFRLGLMAQNFEGVPLYSTRCIGNYLGKAGYKDCNFLSSATAEPVIFEPEIVGGIQITPACRFLVLMSSGLCRALHEIFPGDASTGNRELVRMISEEFQNQSTLGGVAQSVVHRIVQAHHDTYMQLVEEHRSVTFNSRDDVTLLIRNFNYA”, the protein production result is reported as “not failed”.

For the sequence “SLSRTVHHQQTAEITQQAADFIRYMNAINDYLYQHPERRAAGGQLTSAQLGLPATKNVSHLISQQRVFVWAKEKPGLMGALLEQSGDSALLARVENGRLLDTHGRRISITLPAVIPDQVIIWMN”, the protein production entry was “not failed”. As for “SLSSTQSVNSVLAPGNLRKVHHIALNVQDMQASRYFYGTILGLHELTDDEVPATLTELVASGKVANFITPDGTILDLFGEPELSPPDPNPEKTFTRAYHLAFDIDPQLFDRAVTVIGENKIAIAHGPVTRPTGRGVYFYDPDGFMIEIRCDPEAEG”, the protein production entry is listed as “not failed”. Regarding “SLVDGKLVCVTGAGGYIASWIVKLLLERGYTVRGTVRNPTDPKNNHLRELQGAKERLTLHSADLLDYEALCATIDGCDGVFHTASPMTDDPETMLEPAVNGAKFVIDAAAKAKVKRVVFTSSIGAVYMNPNRDTQAIVDENCWSDLDFCKNTKNWYCYGKMLAEQSAWETAKAKGVDLVVLNPVLVLGPPLQSAINASLVHILKYLTGSAKTYANLTQVYVDVRDVALGHVLVYEAPSASGRYILAETALHRGEVVEILAKFFPEYPLPTKCSDEKNPRAKPYKFTTQKIKDLGLEFKPIKQSLYESVKSLQEKGHLPLPQDSNQNEVIIES”, the protein production entry was “failed”. With “SLWQPQTGDIIFQISRSSQSKAIQLATHSDYSHTGMLVMRNKKPYVFEAVGPVKYTPLKQWIAHGEKGKYVVRRVEGGLSVEQQQKLAQTAKRYLGKPYDFSFSWSDDRQYCSEVVWKVYQNALGMRVGEQQKLKEFDLSNPLVQAKLKERYGKNIPLEETVVSPQAVFDAPQLTTVAKEWPLFSW”, the protein production entry is “not failed”. For “SNAMNVPFWTEEHVRATLPERDAESHKGTYGTALLLAGSDDMPGAALLAGLGAMRSGLGKLVIGTSENVIPLIVPVLPEATYWRDGWKKAADAQLEETYRAIAIGPGLPQTESVQQAVDHVLTADCPVILDAGALAKRTYPKREGPVILTPHPGEFFRMTGVPVNELQKKRAEYAKEWAAQLQTVIVLKGNQTVIAFPDGDCWLNPTGNGALAKGGTGDTLTGMILGMLCCHEDPKHAVLNAVYLHGACAELWTDEHSAHTLLAHELSDILPRVWKRFE” the value was “not failed”. For “SNEELETAKEEMQSVNEELQTINSELHGKNELLLQANNDLQNLLDNTQIATIFLDDDLTVRNFTPAAREVFSLRDGDRGRPVTEITSLLSYDKLCEDVRTVQRTLGVVESQLDLEDESATYIMRIRPYRTVANVISGVVITFSNITEQKQQHDHLQVLMGELQHRTNNVFAVILAIARQTVRNS”, the protein production result was “failed”.

Turning to “SNGTPLMTPTELIERQASGEQLQIIDTRSKKQYEISCVKGAIHIPLAEIRDRVAELDKNVTTITYCNKGVTGNAAQNILLNEGFKEVYNLSGGNKNY”, the protein production result is “failed”.

Values taken from a protein production outcome set (Wang et al. 2014).
